Measured values taken from patent publication US20220119450A1 (UNIVERSITY OF TARTU, published 2022).
No end group written: not given here. FAM = 5(6)-carboxyfluorescein; Ahx = NCCCCCC(=O)O

T1: recombinant His-tagged tenascin-C C domain (TNC-C)
T1 construct: 112 amino acids, expressed in E. coli from pET28a+ with N-terminal His-tag
T1 chain: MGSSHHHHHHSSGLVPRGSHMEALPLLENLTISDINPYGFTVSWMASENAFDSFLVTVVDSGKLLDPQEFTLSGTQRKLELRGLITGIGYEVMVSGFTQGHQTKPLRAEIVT

B1: PL5 peptide displayed on T7 phage (PPRRGLIKLKTSSNTKENSVVASLRP) (peptide)
peptide: PPRRGLIKLKTSSNTKENSVVASLRP
modifications: not fully specified (N-terminus); also: displayed on T7 phage capsid protein
notes: 26-aa peptide at the C-terminus of the T7 major capsid protein, arisen by a frameshift; also called PL5 phage
B2: synthetic FAM-labeled PL1 peptide (peptide)
peptide: {FAM-Ahx}-PPRRGLIKLKTS-OH
notes: Immobilized on ELISA plate and probed with His-tagged recombinant proteins; also called FAM-PL1
B3: PL3-functionalized silver nanoparticles (biotinylated PL3 peptide on NeutrAvidin-coated AgNPs) (peptide)
peptide: AGRGRLVR
modifications: not fully specified (N-terminus); also: biotinylated, site not given here, bound to NeutrAvidin on dye-labeled PEGylated silver nanoparticles
notes: Multivalent display on nanoparticles; also called PL3-AgNPs; AgNP-PL3

Experiments:
[1] = molecular target: T2, recombinant His-tagged fibronectin extra domain B (FN-EDB); assay: T7 peptide phage binding to recombinant Fn-EDB, fold over heptaglycine (G7) control phage
T2 construct: 112 amino acids, expressed in E. coli from pET28a+ with N-terminal His-tag; also called fibronectin EDB-domain
Description: The first panning round were performed on Fn-EDB immobilized on Costar 96-Well enzyme-linked immunosorbent assay (ELISA) plate (#3590, Corning Life Sciences, Tewksbury, Mass., USA). The plate was coated with 20 μg/ml recombinant Fn-EDB in 100 μl of PBS overnight at 4° C., followed by blocking with 1% bovine serum albumin (BSA) in PBS overnight at 4° C. The phage library solution (5×10⁸ pfu in 100 μl of PBS-BSA) were incubated overnight at 4° C., followed by 6 wash with PBS+BSA+0.1% Tween 20 to remove non-specifically bound background phages, and by phage rescue and amplification in E. coli strain BLT5403 (Novagen, EMD Biosciences, MA, USA) (Teesalu et al., 2012). The consequent rounds of selection were performed on Ni-NTA Magnetic Agarose Beads (QIAGEN, Hilden, Germany) coated with His-6X tagged Fn-EDB (30 μg/10 μl beads) at room temperature for 1 hour in 400 μl of PBS. The Fn-EDB immobilized beads were washed three times with PBS+BSA+0.1% NP40, followed by incubation of previous round phage (5×10⁸ pfu in 100 μl of PBS+BSA+0.1% NP40) for 1 hour at room temperature. The unbound/weakly bound phage removed by rinsing six times with PBS+BSA+0.1% NP40, binding phage were eluted with 1 ml of PBS+500 mM Imidazole+0.1% NP40. The recovered phage was tittered and amplified for a subsequent round of selection.
For cell-free binding studies using individually amplified phage clones; phage was incubated with Fn-EDB coated magnetic beads as described above. RPARPAR phage on NRP-1-coated beads was used as a positive control (Teesalu et al., 2009), Nucleolin (NCL) and Tenascin C—C domain (TNC-C) were used as negative control. Phage clones displaying heptaglycine peptide (GGGGGGG, G7 (SEQ ID NO:20)) or insert less phage clones were used as negative controls.

[2] = molecular target: T1, recombinant His-tagged tenascin-C C …; assay: T7 peptide phage binding to recombinant TNC-C, fold over control heptaglycine phage
Description: Throughout our screens, the phage recovered during a round of selection was amplified using plate amplification protocol (Teesalu et al., 2012). The 1st and 4th round of biopanning were performed on TNC-C immobilized on Costar 96-Well ELISA plate (#3590, Corning Life Sciences, Tewksbury, Mass., USA). Briefly, the multiwell plate was coated with 20 μg/ml recombinant TNC-C in 100 μl of PBS overnight at 4° C., followed by blocking with 1% bovine serum albumin (BSA) in PBS overnight at 4° C. The phage library solution (5×10⁸ pfu in 100 μl of PBS-BSA) were incubated overnight at 4° C., followed by 6 washes with PBS+1% BSA+0.1% Tween 20 to remove non-specifically bound background phages, and by phage rescue and amplification in E. coli strain BLT5403 (Novagen, EMD Biosciences, MA, USA) (Lingasamy, P. et al., Biomaterials 119373. 2019). The subsequent rounds of selection were performed on Ni-NTA Magnetic Agarose Beads (QIAGEN, Hilden, Germany) coated with His-6X tagged TNC-C (30 μg/10 μl beads) at room temperature for 1 hour in 400 μl of PBS. The TNC-C immobilized beads were washed three times with PBS+1% BSA+0.1% NP40, followed by incubation of previous round phage (5×10⁸ pfu in 100 μl of PBS+1% BSA+0.1% NP40) to TNC-C coated beads for 1 hour at room temperature. The unbound/weakly bound (background) phages were removed by rinsing six times with PBS+1% BSA+0.1% NP40, and the bound phages were eluted with 1 ml of PBS+500 mM Imidazole+0.1% NP40.
The recovered phage was tittered and amplified for a subsequent round of selection. […] RPARPAR phage on NRP-1-coated beads was used as a positive control (Teesalu et al., 2009). Phage clones displaying heptaglycine peptide (GGGGGGG, G7 (SEQ ID NO:20)) or insert less phage clones were used as negative controls.

[3] = molecular target: T2, recombinant His-tagged fibronectin …; assay: binding specificity, T7 peptide phage
Description: (§1) To identify bispecific peptides that interact with both TNC-C and FN-EDB, cross screens were performed on both targets. During the first round of selection, microtiter plates coated with 20 μg/ml recombinant purified TNC-C were blocked with PBS containing 1% bovine serum albumin (BSA), followed by incubation with 5×10⁸ pfu of phages in PBS at 4° C. overnight, by washes to remove background, and by phage rescue and amplification in BLT5403 strain of E. coli (Novagen, EMD Biosciences, MA, USA) (Teesalu et al., Methods Enzymol. 503:35-56 (2012)). The following rounds of biopanning were carried on Ni-NTA Magnetic Agarose Beads (QIAGEN, Hilden, Germany) coated with hexahistidine-tagged FN-EDB (3 μg/μl beads) at room temperature. After 5 rounds of selection, a set of random clones was sequenced, and individual peptide-phage clones and control (G7 peptide-displaying or insertless) phages were incubated with FN-EDB and TNC-C-coated magnetic beads. RPARPAR phage (SEQ ID NO:5) and His-tagged NRP-1 b1b2 domain were used as positive control (Teesalu et al., Proc. Natl. Acad. Sci. U.S.A 106:16157-62 (2009)). To address the specificity of the peptide phage binding to the FN-EDB and TNC-C, the protein-coated beads were pre-incubated with 20 μg/ml blocking rabbit polyclonal antibodies.
(§2) Immobilized FAM-PL1 was probed with recombinant His-tagged EDB and TNC-C (or control BSA), followed by sequential incubation with rabbit anti-His-tag primary antibody, secondary goat anti-rabbit HRP antibody and a chromogenic peroxidase reaction.

[4] = molecular target: T1, recombinant His-tagged tenascin-C C …; assay: binding specificity, T7 peptide phage
Description: as §1, §2

[5] = molecular target: T2, recombinant His-tagged fibronectin …; assay: ELISA: immobilized FAM-PL1 probed with His-tagged protein, anti-His-tag antibody, HRP
Description: (§3) The FAM-labeled peptides were coated on ELISA plates (Nunc Maxisorp, Thermo Fisher Scientific Inc., MA, USA), blocked with PBS containing 1% BSA, and incubated with recombinant proteins at 2 μg/well in PBS for 6 h. The protein was detected using an anti-His-tag antibody, followed by horseradish peroxidase-conjugated secondary antibody, chromogenic reaction, and measurement of absorbance at 450 nm with a microplate reader (Tecan Austria GmbH, Grödig, Austria).
as §2

[6] = molecular target: T1, recombinant His-tagged tenascin-C C …; assay: as above
Description: as §3, §2

[7] = molecular target: T3, NRP-1 on NRP-1-positive cells (U87-MG glioma, PPC1 prostate carcinoma; U87-MG xenograft tumors) (UniProt O14786 22-923, limits assumed); assay: nanoparticle binding and uptake on cultured cells, confocal imaging
T3 construct: whole, on cells; in xenografts mouse NRP-1 is also present
Description: U87-MG, PPC1, and M21 cells cultured on glass coverslips were incubated with CF555-labeled AgNPs at 37° C. for 1 hour, followed by washing with medium to remove background AgNPs. Etching solution freshly diluted from 0.2 M stock solutions of Na₂S₂O₃ and K₃Fe(CN)₆ to 10 mM working concentration in PBS was applied to cells for 3 minutes, followed by PBS washes. The cells on coverslips were fixed with −20° C. methanol for 1 minute. The cell membrane was visualized by staining with Alexa Fluor 488-labeled wheat germ agglutinin (WGA) at 1:1000 at RT for 1 h. Nuclei were stained with 4′,6-diamidino-2-phenylindole (DAPI, Molecular Probes) at 1 μg/mL. Fluoromount-G (Electron Microscopy Sciences) medium was used to mount the coverslips on microscope slides for confocal imaging.
Many cultured tumor cell lines overexpress NRP-1 and internalize peptides with active CendR motif. The uptake of CF555-labeled PL3-AgNPs in NRP-1-positive U87-MG glioma and PPC1 prostate carcinoma cells, and in NRP-1-negative M21 melanoma cells was investigated. The dye-labeled AgNP cores are well suited for fluorescence imaging as the AgNP increases the brightness of the surface-bound dye by about an order of magnitude by plasmonic enhancement. The AgNPs labeled with CF647 dye were coated with neutravidin (NA) and PEGylated, creating a stable colloid ready for coating with biotinylated peptides. […]

T3 sequence (O14786 22-923 limits assumed): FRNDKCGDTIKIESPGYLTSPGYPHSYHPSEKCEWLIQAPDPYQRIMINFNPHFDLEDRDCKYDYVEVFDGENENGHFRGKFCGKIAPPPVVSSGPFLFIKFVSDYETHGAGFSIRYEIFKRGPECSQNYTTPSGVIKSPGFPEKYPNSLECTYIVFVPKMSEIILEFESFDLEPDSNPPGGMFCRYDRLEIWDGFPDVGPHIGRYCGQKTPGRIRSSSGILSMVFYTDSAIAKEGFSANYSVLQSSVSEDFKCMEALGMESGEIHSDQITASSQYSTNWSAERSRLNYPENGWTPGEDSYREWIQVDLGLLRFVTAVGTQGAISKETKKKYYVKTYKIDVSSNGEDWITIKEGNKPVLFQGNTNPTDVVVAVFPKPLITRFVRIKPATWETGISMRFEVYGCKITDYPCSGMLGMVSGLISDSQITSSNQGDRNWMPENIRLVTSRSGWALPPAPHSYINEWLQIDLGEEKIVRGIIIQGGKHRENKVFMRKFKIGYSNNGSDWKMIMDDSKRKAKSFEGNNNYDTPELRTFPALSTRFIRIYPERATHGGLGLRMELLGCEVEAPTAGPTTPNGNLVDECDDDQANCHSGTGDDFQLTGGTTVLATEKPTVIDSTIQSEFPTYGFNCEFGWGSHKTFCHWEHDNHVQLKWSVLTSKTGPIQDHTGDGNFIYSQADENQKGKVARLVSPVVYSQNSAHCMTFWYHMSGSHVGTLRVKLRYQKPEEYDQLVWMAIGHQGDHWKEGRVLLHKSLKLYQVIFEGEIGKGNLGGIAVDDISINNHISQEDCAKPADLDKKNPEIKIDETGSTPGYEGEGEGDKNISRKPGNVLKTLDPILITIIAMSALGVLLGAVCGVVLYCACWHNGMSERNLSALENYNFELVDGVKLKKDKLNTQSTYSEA

Binder	Fold over G7 [1]	TNC-C binding (fold G7 control phage) [2]	further results
TKRKGKG [Fn-EDB-selected peptide phage clone 2, TKRKGKG]	58 fold	–	–
RGRLVRA [TNC-C-selected peptide phage clone 45, RGRLVRA]	–	737 fold	–
GTRRRSRINLAAALE [Fn-EDB-selected peptide phage clone 10, GTRRRSRINLAAALE]	1560 fold	–	–
GLGGRRIKLKTS [Fn-EDB-selected peptide phage clone 3, GLGGRRIKLKTS]	2060 fold	–	–
CSRRGILRAKPAAALE [TNC-C-selected peptide phage clone 4, CSRRGILRAKPAAALE]	–	4890 fold	–
AGVGRLRRAKLAAALE [TNC-C-selected peptide phage clone 1, AGVGRLRRAKLAAALE]	–	3260 fold	–
AGRGRLVRAKLAAALE [TNC-C-selected peptide phage clone 5, AGRGRLVRAKLAAALE]	–	5780 fold	–
B1	–	–	binding result [3]: binds; binding result [4]: binds
CQRMGVVGAKLAAALE [TNC-C-selected peptide phage clone 36, CQRMGVVGAKLAAALE]	–	3930 fold	–
B2	–	–	binding result [5]: binds; binding result [6]: binds
TSKQNSR (also called phage PL2 peptide) [PL2 peptide displayed on T7 phage (TSKQNSR)]	89 fold	–	–
CRGVLRRAKLAAALE [TNC-C-selected peptide phage clone 2, CRGVLRRAKLAAALE]	–	5960 fold	–
B3	–	–	binding result [7]: binds
GRLTRVR [TNC-C-selected peptide phage clone 46, GRLTRVR]	–	115 fold	–
RESRRGRVKLAAALE [Fn-EDB-selected peptide phage clone 33, RESRRGRVKLAAALE]	209 fold	–	–
KVKKRGA [Fn-EDB-selected peptide phage clone 17, KVKKRGA]	44 fold	–	–
RRLVRVA [TNC-C-selected peptide phage clone 35, RRLVRVA]	–	1220 fold	–
VHERTRI [Fn-EDB-selected peptide phage clone 24, VHERTRI]	1 fold	–	–
VGRVRFSRKLAAALE [TNC-C-selected peptide phage clone 30, VGRVRFSRKLAAALE]	–	3700 fold	–
RGRLRRVE [TNC-C-selected peptide phage clone 44 (Seq ID No. 37)]	–	886 fold	–
GRRGRVIKLKTSEPPQ [Fn-EDB-selected peptide phage clone 4, GRRGRVIKLKTSEPPQ]	1180 fold	–	–
